Data on one molecule can be found in US20220340673A1 (HARBOUR BIOMED SUZHOU, published 2022).

The target of experiment [1] is T1, human BCMA on cells (HEK293T/huBCMA; NCI-H929) (human, UniProt Q02223 1-184).
T1 construct: whole, on cells; also called human BCMA molecules on NCI-H929 cell line
T1 sequence (looked up): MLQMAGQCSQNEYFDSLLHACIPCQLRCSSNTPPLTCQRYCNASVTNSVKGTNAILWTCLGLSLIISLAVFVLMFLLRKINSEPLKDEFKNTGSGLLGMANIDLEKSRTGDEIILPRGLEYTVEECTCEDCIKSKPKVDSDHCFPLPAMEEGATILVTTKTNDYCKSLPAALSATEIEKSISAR
Kind of experiment: FACS on NCI-H929 cells.

The target of experiment [2] is T1, human BCMA on cells (HEK293T/huBCMA; …). Kind of experiment: FACS on HEK293T cell strain overexpressing human BCMA [C]. The source says: (§1) To study the in vitro binding activity of the BCMA arm of the BCMA×CD3 bispecific antibody, HEK293T cell strain overexpressing human BCMA (HEK293T/huBCMA) and HEK293T cell strain overexpressing cynomolgus monkey BCMA (HEK293T/cynoBCMA) were used for antibody binding experiments at cellular level. Briefly, HEK293T/huBCMA cells and HEK293T/cynoBCMA cells were digested and resuspended with DMEM complete medium. The cell density of the two was adjusted to 1×10⁶ cells/mL, respectively. Cells were inoculated at 100 μL cells/well in a 96 well V-bottom plate (Corning, Cat#: 3894), followed by the addition of test antibodies at 100 μL/well, which is gradient diluted at 3 folds of the concentration with 2 folds of the final concentration. Cells were incubated at 4° C. for 1 hour in the dark. Afterwards, the cells were washed twice with 100 μL/well of pre-cooled PBS, centrifuged at 500 g for 5 min at 4° C., and followed by discarding the supernatant. 100 μL/well of fluorescent secondary antibody (Alexa Fluor 488-conjugated AffiniPure Goat Anti-Human IgG, Fcγ Fragment Specific, Jackson, Cat#: 109-545-06, 1:500 dilution) was added and incubated for 30 min at 4° C. in the dark. […] Finally, the cells were resuspended with 200 μL/well of pre-cooled PBS, and the fluorescence luminescence signal values were read by BD FACS CANTOII. […]

Experiment [3] has the same target. The experiment in a line: FACS on HEK293T/huBCMA cells.
Text: as §1

For experiment [4] the target is unchanged. The experiment in a line: FACS on NCI-H929 cell line [B]. How it is done: To study the binding activity of the BCMA arm of the BCMA×CD3 bispecific antibody to human BCMA, NCI-H929 cell line with highly expressed BCMA was used for binding experiments with human BCMA at cellular level. Briefly, NCI-H929 cell suspensions were collected. The cell density was adjusted to 1×10⁶ cells/mL, and the cells were inoculated in 96 well V-bottom plates at 100 μL cells/well (Corning, Cat#: 3894), followed by the addition of test antibodies at 100 μL/well, which is gradient diluted at 3 folds of the concentration with 2 folds of the final concentration. Cells were incubated at 4° C. for 2 hours in the dark. Afterwards, cells were washed twice with 100 μL/well of pre-cooled PBS, centrifuged at 500 g for 5 min at 4° C., and followed by discarding the supernatant. 100 μL/well of fluorescent secondary antibody (Alexa Fluor 488-conjugated AffiniPure Goat Anti-Human IgG, Fcγ Fragment Specific, Jackson, Cat#:109-545-06, 1:500 dilution) was added and incubated at 4° C. for 1 hour in the dark. Cells were washed twice with 100 μL/well of pre-cooled PBS, centrifuged at 500 g, 4° C. for 5 min, and followed by discarding the supernatant. Finally, the cells were resuspended with 200 μL/well of pre-cooled PBS, and the fluorescence luminescence signal values were read by BD FACS CANTOII.

B1: BCMA x CD3 bispecific antibody PR003178 (bispecific antibody, human IgG1, lambda, L234A L235A)
heavy 1: not shown
light: QAVVTQEPSLTVSPGGTVTLTCRSSTGAVTTSNYANWVQQKPGQAPRGLIGGTNKRAPWTPARFSGSLLGDKAALTLLGAQPEDEAEYFCALWYSNLWVFGGGTKLTVLGQPKAAPSVTLFPPSSEELQANKATLVCLISDFYPGAVTVAWKADSSPVKAGVETTTPSKQSNNKYAASSYLSLTPEQWKSHRSYSCQVTHEGSTVEKTVAPTECS
heavy 2: EVQLVETGGGLIQPGGSLRLSCAASGFTVSDNYMTWVRQAPGKGLEWVSVIFSGGNTYYADSVKGRFTISRDNAKNTLYLQMNSLRAEDTALYYCARRNYDDTRGTDVFDIWGQGTMVTVSSGGGGSGGGGSGGGGSEVQLVETGGGLIQPGGSLRLSCAASGFTVSDNYMTWVRQAPGKGLEWVSVIFSGGNTYYADSVKGRFTISRDNAKNTLYLQMNSLRAEDTALYYCARRNYDDTRGTDVFDIWGQGTMVTVSSASEPKSSDKTHTCPPCPAPEAAGGPSVFLFPPKPKDTLMISRTPEVTCVVVDVSHEDPEVKFNWYVDGVEVHNAKTKPREEQYNSTYRVVSVLTVLHQDWLNGKEYKCKVSNKALPAPIEKTISKAKGQPREPQVCTLPPSREEMTKNQVSLSCAVKGFYPSDIAVEWESNGQPENNYKTTPPVLDSDGSFFLVSKLTVDKSRWQQGNVFSCSVMHEALHNHYTQKSLSLSPGK
notes: Three chains: HC1 (anti-CD3 heavy, knob, LALA), LC (anti-CD3 lambda light), HC2 (two tandem anti-BCMA VH of PR001046 joined by (G4S)3, then Fc hole, LALA); also called PRO03178
In the case of B1, the entries for the “fold lower EC50 than positive control 2” value in experiment [1] and in experiment [3] were ~8 fold and ~5 fold, respectively. For the same molecule, the EC50 (commonly the concentration that produces a half-maximal response) in experiment [2] amounted to 0.188 nM; in experiment [4], 1.1 nM.
